# Source: patent publication US20190300590A1 (PROTAGONIST THERAPEUTICS, published 2019)
# *1 amine or outer side, *2 acyl side, *3 side chain or, on linkers, in order; H or OH if unused. Bridges are numbered along the chain shown (N, C = ends). Primed or numbered codes have the meaning given here. Side-chain parts run from the residue outwards. [ ]: non-standard residue; d: D form. Phe(4-OMe) = 4-methoxy-L-phenylalanine (O-methyl-L-tyrosine), COc1ccc(C[C@H](N[*:1])C(=O)[*:2])cc1; Phe(4-OMe)(4) = O-methyl-L-tyrosine, COc1ccc(C[C@H](N[*:1])C(=O)[*:2])cc1; 2Nal = N[C@@H](Cc1ccc2ccccc2c1)C(=O)O; AEF = NCCOc1ccc(C[C@H](N)C(=O)O)cc1; pGlu = O=C1CC[C@@H](C(=O)O)N1; αMeL = CC(C)C[C@](C)(N)C(=O)O; αMeOrn = C[C@](N)(CCCN)C(=O)O; hLeu = CC(C)CC[C@H](N)C(=O)O; αMeK = C[C@](N)(CCCCN)C(=O)O; PEG2′ = not defined here; Abu = CC[C@H](N)C(=O)O; Dap = NC[C@H](N)C(=O)O; Aib = CC(C)(N)C(=O)O
# T1: Rat IL-23R_huFC (rat, UniProt F1LX96 39-369)
# T1 sequence: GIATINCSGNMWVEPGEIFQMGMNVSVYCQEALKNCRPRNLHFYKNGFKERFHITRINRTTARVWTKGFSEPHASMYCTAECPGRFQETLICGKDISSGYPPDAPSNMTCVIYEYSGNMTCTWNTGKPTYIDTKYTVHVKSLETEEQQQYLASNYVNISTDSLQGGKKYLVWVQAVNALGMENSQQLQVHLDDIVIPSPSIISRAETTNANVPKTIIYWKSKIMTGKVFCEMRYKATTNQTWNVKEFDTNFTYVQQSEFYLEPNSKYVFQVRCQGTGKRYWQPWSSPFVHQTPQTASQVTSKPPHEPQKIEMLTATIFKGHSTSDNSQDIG
# T2: IL-23R on human cells (IL-23R-expressing DB cells; human NK cells) (human, UniProt Q5VWK5 24-629)
# T2 sequence (looked up): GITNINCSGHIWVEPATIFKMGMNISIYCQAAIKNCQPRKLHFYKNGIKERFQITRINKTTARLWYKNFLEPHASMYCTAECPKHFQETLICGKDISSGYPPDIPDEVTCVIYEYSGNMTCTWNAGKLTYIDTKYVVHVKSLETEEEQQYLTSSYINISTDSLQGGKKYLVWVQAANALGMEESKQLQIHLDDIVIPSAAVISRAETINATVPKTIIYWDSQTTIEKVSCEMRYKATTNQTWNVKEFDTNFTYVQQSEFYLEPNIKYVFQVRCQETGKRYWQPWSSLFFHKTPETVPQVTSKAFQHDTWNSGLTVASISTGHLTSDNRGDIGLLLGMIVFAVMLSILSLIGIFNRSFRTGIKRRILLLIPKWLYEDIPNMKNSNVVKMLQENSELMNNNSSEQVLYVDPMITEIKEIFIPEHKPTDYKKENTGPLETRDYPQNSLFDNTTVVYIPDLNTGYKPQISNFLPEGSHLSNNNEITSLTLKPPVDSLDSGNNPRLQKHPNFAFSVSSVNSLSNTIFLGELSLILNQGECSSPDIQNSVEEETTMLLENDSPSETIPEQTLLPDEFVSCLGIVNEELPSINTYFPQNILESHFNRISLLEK
# T3: IL23R_huFC (human, UniProt Q5VWK5 24-353)
# T3 sequence (looked up): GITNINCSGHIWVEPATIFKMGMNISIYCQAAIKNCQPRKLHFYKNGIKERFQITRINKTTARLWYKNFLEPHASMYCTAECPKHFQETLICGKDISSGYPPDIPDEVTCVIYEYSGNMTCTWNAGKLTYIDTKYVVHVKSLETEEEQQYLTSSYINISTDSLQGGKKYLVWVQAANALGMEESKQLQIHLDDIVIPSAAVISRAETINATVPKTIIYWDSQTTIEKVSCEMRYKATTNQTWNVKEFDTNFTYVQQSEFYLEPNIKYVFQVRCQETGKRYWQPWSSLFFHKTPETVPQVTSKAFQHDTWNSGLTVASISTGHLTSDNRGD
# B1: isovaleric acid-[Pen]-QTWQ[Pen]-[Phe(4-OMe)]-[2-Nal]-[α-MeLys]-[Lys(Ac)]-NG-NH2 (peptide)
# peptide: XQTWQXFXKKNG
# modifications: N-terminal isovaleric acid; Pen-Pen disulfide; Phe(4-OMe); 2-Nal; α-MeLys; Lys(Ac); NH2
# B2: glutaric acid-[Pen]-QTWQ[Pen]-[Phe(4-OMe)]-[2-Nal]-[α-MeLys]-[Lys(Ac)]-NG-NH2 (peptide)
# peptide: XQTWQXFXKKNG
# modifications: N-terminal glutaric acid; Pen-Pen disulfide; Phe(4-OMe); 2-Nal; α-MeLys; Lys(Ac); NH2
# Target: T1, Rat IL-23R_huFC
# Test: rat IL-23R competitive binding ELISA
row,IC50,Binder
1,25 to 100 nM,B1
2,25 to 100 nM,B2
3,25 to 100 nM,XQTWQXFXKKNG (Ac; Pen-Pen disulfide; Phe(4-OMe); 2-Nal; α-MeLys; Lys(Ac); NH2) [Ac-[Pen]-QTWQ-[Pen]-[Phe(4-OMe)]-[2-Nal]-[α-MeLys]-[Lys(Ac)]-NG-NH2]
4,10 to 25 nM,XQTWQXFXKKNN (Ac; Pen-Pen disulfide; Phe[4-(2-aminoethoxy)]; 2-Nal; α-MeLys; Lys(Ac); NH2) [Ac-[Pen]-QTWQ-[Pen]-[Phe[4-(2-aminoethoxy)]-[2-Nal]-[α-MeLys]-[Lys(Ac)]-NN-NH2]
5,10 to 25 nM,XQTWQXFXVKNN (Ac; Pen-Pen disulfide; Phe(4-CONH2); 2-Nal; α-MeVal; Lys(Ac); NH2) [Ac-[Pen]-QTWQ-[Pen]-[Phe(4-CONH2)]-[2-Nal]-[α-MeVal]-[Lys(Ac)]-NN-NH2]
6,25 to 100 nM,XQTWQXFXKKNN (Ac; Pen-Pen disulfide; Phe(4-CONH2); 2-Nal; α-MeLys; Lys(Ac); NH2) [Ac-[Pen]-QTWQ-[Pen]-[Phe(4-CONH2)]-[2-Nal]-[α-MeLys]-[Lys(Ac)]-NN-NH2]

# Target: T2, IL-23R on human cells …
# Test: cell-based or functional assay
row,pStat3 HTRF IC50,Binder
1,< 10 nM,Ac-[Abu]QTWQC[AEF][2Nal][αMeK][Dap](pGlu)NG-NH2 (thioether 1-6) [Ac-Cyclo-[[Abu]-QTWQC]-[Phe[4-(2-aminoethoxy)]]-[2-Nal]-[α-MeLys]-[Dap(pyroglutamic acid)]-NG-NH2]
2,< 10 nM,Ac-[Abu]QTWQC[AEF]W[Aib]ENN-NH2 (thioether 1-6) [Ac-Cyclo-[[Abu]-QTWQC]-[Phe[4-(2-aminoethoxy)]]-W-[Aib]-ENN-NH2]
3,< 10 nM,Ac-[Abu]QTWQC[Phe(4-OMe)][2Nal][Aib]K(Ac)NG-NH2 (thioether 1-6) [Ac-Cyclo-[[Abu]-QTWQC]-[Phe(4-OMe)]-[2-Nal]-[Aib]-[Lys(Ac)]-NG-NH2]
4,< 10 nM,Ac-[Abu]QTWQC[AEF][2Nal][Aib]K(Ac)QG-NH2 (thioether 1-6) [Ac-Cyclo-[[Abu]-QTWQC]-[Phe[4-(2-aminoethoxy)]]-[2-Nal]-[Aib]-[Lys(Ac)]-QG-NH2]
5,< 10 nM,Ac-[Abu]QTWQC[AEF][2Nal][Aib]EK(Ac)G-NH2 (thioether 1-6) [Ac-Cyclo-[[Abu]-QTWQC]-[Phe[4-(2-aminoethoxy)]]-[2-Nal]-[Aib]-E-[Lys(Ac)]-G-NH2]
6,< 10 nM,XQTWQCFWXENG (as bracketed in name; thioether cyclo) [Ac-Cyclo-[[Abu]-QTWQC]-[Phe[4-(2-aminoethoxy)]]-W-[α-Me-Orn]-ENG-NH2]
7,< 10 nM,Ac-[Abu]QTWQCYW[αMeL]ENG-NH2 (thioether 1-6) [Ac-Cyclo-[[Abu]-QTWQC]-YW-[α-MeLeu]-ENG-NH2]
8,< 10 nM,Ac-[Abu]QTWQC[AEF]W[hLeu]ENG-NH2 (thioether 1-6) [Ac-Cyclo-[[Abu]-QTWQC]-[Phe[4-(2-aminoethoxy)]]-W-[hLeu]-ENG-NH2]
9,< 10 nM,Ac-[Abu]QTWQC[AEF]W[Aib]ENG-NH2 (thioether 1-6) [Ac-Cyclo-[[Abu]-QTWQC]-[Phe[4-(2-aminoethoxy)]]-W-[Aib]-ENG-NH2]
10,< 10 nM,Ac-[Abu]NTWQC[Phe(4-OMe)(4)][2Nal][αMeK]K(Ac)NG-NH2 (thioether 1-6) [Ac-Cyclo-[[Abu]-NTWQC]-[Phe(4-OMe)]-[2-Nal][α-MeLys]-[Lys(Ac)]-NG-NH2]
11,< 10 nM,Ac-[Abu]QTWQC[Phe(4-OMe)][2Nal][αMeK]ENG-NH2 (thioether 1-6) [Ac-Cyclo-[[Abu]-QTWQC]-[Phe(4-OMe)]-[2-Nal]-[α-MeLys]-ENG-NH2]
12,< 10 nM,Ac-[Abu]QTWQC[AEF][2Nal][αMeK]RNG-NH2 (thioether 1-6) [Ac-Cyclo-[[Abu]-QTWQC]-[Phe[4-(2-aminoethoxy)]]-[2-Nal]-[α-MeLys]-RNG-NH2]

# Target: Rat IL-23R_huFC (rat)
# Test: rat ELISA vs IL-23
row,IC50,Binder
1,25 to 100 nM,Ac-[Abu]QTWQC[Phe(4-OMe)][2Nal][Aib]K(Ac)NG-NH2 (thioether 1-6) [Ac-Cyclo-[[Abu]-QTWQC]-[Phe(4-OMe)]-[2-Nal]-[Aib]-[Lys(Ac)]-NG-NH2]
2,25 to 100 nM,Ac-[Abu]QTWQCYW[αMeL]ENG-NH2 (thioether 1-6) [Ac-Cyclo-[[Abu]-QTWQC]-YW-[α-MeLeu]-ENG-NH2]
3,25 to 100 nM,Ac-[Abu]NTWQC[Phe(4-OMe)(4)][2Nal][αMeK]K(Ac)NG-NH2 (thioether 1-6) [Ac-Cyclo-[[Abu]-NTWQC]-[Phe(4-OMe)]-[2-Nal][α-MeLys]-[Lys(Ac)]-NG-NH2]
4,25 to 100 nM,Ac-[Abu]QTWQC[Phe(4-OMe)][2Nal][αMeK]ENG-NH2 (thioether 1-6) [Ac-Cyclo-[[Abu]-QTWQC]-[Phe(4-OMe)]-[2-Nal]-[α-MeLys]-ENG-NH2]

# Target: T3, IL23R_huFC
# Test: human ELISA vs IL-23
row,IC50,Binder
1,10 to 25 nM,Ac-[Abu]QTWQC[AEF][2Nal][αMeK][Dap](pGlu)NG-NH2 (thioether 1-6) [Ac-Cyclo-[[Abu]-QTWQC]-[Phe[4-(2-aminoethoxy)]]-[2-Nal]-[α-MeLys]-[Dap(pyroglutamic acid)]-NG-NH2]
2,10 to 25 nM,Ac-[Abu]QTWQC[AEF]W[Aib]ENN-NH2 (thioether 1-6) [Ac-Cyclo-[[Abu]-QTWQC]-[Phe[4-(2-aminoethoxy)]]-W-[Aib]-ENN-NH2]
3,10 to 25 nM,Ac-[Abu]QTWQC[AEF]W[αMeOrn]K(Ac)NG-NH2 (thioether 1-6) [Ac-Cyclo-[[Abu]-QTWQC]-[Phe[4-(2-aminoethoxy)]]-W-[α-Me-Orn]-[Lys(Ac)]-NG-NH2]
4,10 to 25 nM,Ac-[Abu]QTWQC[Phe(4-OMe)][2Nal][Aib]K(Ac)NG-NH2 (thioether 1-6) [Ac-Cyclo-[[Abu]-QTWQC]-[Phe(4-OMe)]-[2-Nal]-[Aib]-[Lys(Ac)]-NG-NH2]
5,10 to 25 nM,Ac-[Abu]QTWQC[AEF][2Nal][Aib]K(Ac)QG-NH2 (thioether 1-6) [Ac-Cyclo-[[Abu]-QTWQC]-[Phe[4-(2-aminoethoxy)]]-[2-Nal]-[Aib]-[Lys(Ac)]-QG-NH2]
6,10 to 25 nM,Ac-[Abu]QTWQC[AEF][2Nal][Aib]EK(Ac)G-NH2 (thioether 1-6) [Ac-Cyclo-[[Abu]-QTWQC]-[Phe[4-(2-aminoethoxy)]]-[2-Nal]-[Aib]-E-[Lys(Ac)]-G-NH2]
7,10 to 25 nM,XQTWQCFXXKNG (as bracketed in name; thioether cyclo) [Ac-Cyclo-[[Abu]-QTWQC]-[Phe[4-(2-aminoethoxy)]]-[2-Nal]-[Orn]-[Lys(Ac)]-NG-NH2]
8,10 to 25 nM,XQTWQCFWXENG (as bracketed in name; thioether cyclo) [Ac-Cyclo-[[Abu]-QTWQC]-[Phe[4-(2-aminoethoxy)]]-W-[α-Me-Orn]-ENG-NH2]
9,10 to 25 nM,Ac-[Abu]QTWQCYW[αMeL]ENG-NH2 (thioether 1-6) [Ac-Cyclo-[[Abu]-QTWQC]-YW-[α-MeLeu]-ENG-NH2]
10,10 to 25 nM,Ac-[Abu]QTWQC[AEF]W[hLeu]ENG-NH2 (thioether 1-6) [Ac-Cyclo-[[Abu]-QTWQC]-[Phe[4-(2-aminoethoxy)]]-W-[hLeu]-ENG-NH2]
11,10 to 25 nM,Ac-[Abu]QTWQC[AEF][2Nal][αMeK][Dap]([PEG2′-Ac])NG-NH2 (thioether 1-6) [Ac-Cyclo-[[Abu]-QTWQC]-[Phe[4-(2-aminoethoxy)]]-[2-Nal][α-MeLys]-[Dap(PEG2-Ac)]NG-NH2]
12,10 to 25 nM,Ac-[Abu]QTWQC[AEF]W[Aib]ENG-NH2 (thioether 1-6) [Ac-Cyclo-[[Abu]-QTWQC]-[Phe[4-(2-aminoethoxy)]]-W-[Aib]-ENG-NH2]
13,10 to 25 nM,Ac-[Abu]NTWQC[Phe(4-OMe)(4)][2Nal][αMeK]K(Ac)NG-NH2 (thioether 1-6) [Ac-Cyclo-[[Abu]-NTWQC]-[Phe(4-OMe)]-[2-Nal][α-MeLys]-[Lys(Ac)]-NG-NH2]
14,10 to 25 nM,Ac-[Abu]QTWQC[Phe(4-OMe)][2Nal][αMeK]ENG-NH2 (thioether 1-6) [Ac-Cyclo-[[Abu]-QTWQC]-[Phe(4-OMe)]-[2-Nal]-[α-MeLys]-ENG-NH2]
15,10 to 25 nM,Ac-[Abu]QTWQC[AEF][2Nal][αMeK]RNG-NH2 (thioether 1-6) [Ac-Cyclo-[[Abu]-QTWQC]-[Phe[4-(2-aminoethoxy)]]-[2-Nal]-[α-MeLys]-RNG-NH2]
